The record followed here is US20240002531A1 (ONO PHARMACEUTICAL, published 2024).

Changes are numbered by the printed parent chain.

First the molecules themselves.
B1: H2Mab-291 antibody (antibody, mouse IgG3, V domains shown)
VH: EVQLQQSGPELVKPGASMKISCKASGYSFTGYTMNWVKQSHGKNLEWIGLINPYNGNTRYNQKFQDKATLTVDRSSSTAYMELLSLTSEDSAVYYCVKEPSDYWGQGTTLTVSS
VL: DVVMTQTPLSLPVSLGDQASISCRSSQSLVHINGNTYLHWYLQKPGQSPKLLIYKVSKRFSGVPDRFSGSGSGTDFTLKISRVEAADLGVYFCSQSTHVPPTFGGGTKLEIKR
B2: H2Mab-292 antibody (antibody, mouse IgG3, V domains shown)
VH: B1 VH with M18R, Q39K, Y54S, N57G, Q65K, R74K
VL: B1 VL with I32S, K58N, S70R, A86E, V90I
B3: H2Mab-289 antibody (antibody, mouse IgG1, kappa, V domains shown)
VH: EVQLQQSGPELVKPGASVKISCKASGYSFTGFFMNWVMQSHGKSLEWIGRINPYNGDTFYNQKFNDKATLTVDKSSRTAHMDLRNLASEDSAVYYCATISGNYRGYAMDNWGQGTSVTVSS
VL: DVLMTQTPLSLPVSLGDQASISCRSSQTILHTNGNTYLEWYLQKPGQSPKLLIYKVSNRFSGVPDRFSGSGSGTDFTLKISRVEAEDLGVYYCFQGSRVPPTFGGGTKLEIKR

The first assay addresses T1, K615A peptide (HER2 603-622 with K615A) (human).
T1 peptide: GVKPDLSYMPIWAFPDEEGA
The assay can be described thus: peptide ELISA, OD 655 nm.
For the molecule B1, the binding result is recorded as “binds”.

Turning to B2, the binding result is “binds”.

As to B3, the binding result is “binds”.

A further assay deals with T2, E619A peptide (HER2 603-622 with E619A) (human).
T2 peptide: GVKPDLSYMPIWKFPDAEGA
The assay can be described thus: peptide ELISA, OD 655 nm.
On to B1, for which the binding result was “binds”.

Regarding B2, the binding result is on record as “binds”.

As for B3, the binding result is “binds”.

In another assay the target is T3, S609A peptide (HER2 603-622 with S609A) (human).
T3 peptide: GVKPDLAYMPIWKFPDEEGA
The assay can be described thus: peptide ELISA, OD 655 nm.
Turning to B1, the binding result is “binds”.

Consider B2, for which the binding result was “binds”.

As for B3, the binding result was “binds”.

Another assay has as its target T4, I613A peptide (HER2 603-622 with I613A) (human).
T4 construct: also called 1613A
T4 peptide: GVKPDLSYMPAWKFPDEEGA
The assay is described as follows: peptide ELISA, OD 655 nm.
Consider B1, for which the binding result is on record as “binds”.

Consider B2, for which the binding result is recorded as “binds”.

Turning to B3, the binding result is listed as “binds”.

The target in another assay is T5, F616A peptide (HER2 603-622 with F616A) (human).
T5 peptide: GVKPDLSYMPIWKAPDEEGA
The assay can be described thus: peptide ELISA, OD 655 nm.
For B1, the binding result was “binds”.

With B2, the binding result is listed as “binds”.

Regarding B3, the binding result is listed as “binds”.

Another assay has as its target T6, D607A peptide (HER2 603-622 with D607A) (human).
T6 peptide: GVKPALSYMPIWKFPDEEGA
The assay is described as follows: peptide ELISA, OD 655 nm.
Consider B1, for which the binding result is on record as “binds”.

As to B2, the binding result is listed as “binds”.

Turning to B3, the binding result was “binds”.

For the next assay, the target named is T7, W614A peptide (HER2 603-622 with W614A) (human).
T7 peptide: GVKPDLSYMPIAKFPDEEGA
The assay is described as follows: peptide ELISA, OD 655 nm.
Regarding B1, the binding result is recorded as “binds”.

Regarding B2, the binding result was “no binding (tested: 10 ug/ml)”.

For the molecule B3, the binding result is “binds”.

Another assay has as its target T8, HER2 peptide p603-622 (amino acids 603 to 622 of human HER2) (human).
T8 construct: Synthetic peptide; also called wild-type HER2 peptide
T8 peptide: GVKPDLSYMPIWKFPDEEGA
The assay can be described thus: peptide ELISA, OD 655 nm.
For B1, the binding result is listed as “binds”.

Take B2: the binding result is reported as “binds”.

As to B3, the binding result is reported as “binds”.

The target in another assay is T9, P617A peptide (HER2 603-622 with P617A) (human).
T9 peptide: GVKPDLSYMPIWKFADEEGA
The assay is described as follows: peptide ELISA, OD 655 nm.
For B1, the binding result is on record as “binds”.

In the case of B2, the binding result is listed as “binds”.

On to B3, for which the binding result is given as “binds”.

The next assay concerns the target T10, P606A peptide (HER2 603-622 with P606A) (human).
T10 peptide: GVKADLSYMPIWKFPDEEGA
The assay is described as follows: peptide ELISA, OD 655 nm.
B1: the binding result is reported as “binds”.

For the molecule B2, the binding result was “binds”.

Take B3: the binding result was “binds”.

The target in a further assay is T11, P612A peptide (HER2 603-622 with P612A) (human).
T11 peptide: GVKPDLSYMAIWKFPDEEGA
The assay is described as follows: peptide ELISA, OD 655 nm.
In the case of B1, the binding result is listed as “binds”.

As to B2, the binding result is on record as “binds”.

B3: the binding result is “binds”.

In a further assay the target is T12, D618A peptide (HER2 603-622 with D618A) (human).
T12 peptide: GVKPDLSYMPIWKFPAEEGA
The assay is described as follows: peptide ELISA, OD 655 nm.
In the case of B1, the binding result was “binds”.

Consider B2, for which the binding result is “binds”.

Regarding B3, the binding result was “binds”.

Another assay concerns the target T13, L608A peptide (HER2 603-622 with L608A) (human).
T13 peptide: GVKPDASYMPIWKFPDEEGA
The assay can be described thus: peptide ELISA, OD 655 nm.
In the case of B1, the binding result was “binds”.

As to B2, the binding result was “binds”.

Turning to B3, the binding result is “binds”.

The target in another assay is T14, M611A peptide (HER2 603-622 with M611A) (human).
T14 peptide: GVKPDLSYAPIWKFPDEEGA
The assay can be described thus: peptide ELISA, OD 655 nm.
For B1, the binding result was “binds”.

On to B2, for which the binding result is recorded as “binds”.

As for B3, the binding result is given as “binds”.

The next assay has as its target T15, HER2_604-622C peptide (NH2-VKPDLSYMPIWKFPDEEGAC-COOH) (human).
T15 construct: KLH was added for immunisation, the peptide itself was coated in the screening ELISA
T15 peptide: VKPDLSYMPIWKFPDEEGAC
The assay can be described thus: peptide ELISA, OD 655 nm.
Take B1: the binding result was “binds”.

For B2, the binding result is on record as “binds”.

As for B3, the binding result is “binds”.

The target in another assay is T16, K605A peptide (HER2 603-622 with K605A) (human).
T16 peptide: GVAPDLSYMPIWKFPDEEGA
The assay is described as follows: peptide ELISA, OD 655 nm.
With B1, the binding result is on record as “binds”.

Consider B2, for which the binding result is listed as “binds”.

With B3, the binding result is recorded as “binds”.

The target of the next assay is T17, E620A peptide (HER2 603-622 with E620A) (human).
T17 peptide: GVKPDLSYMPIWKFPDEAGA
The assay is described as follows: peptide ELISA, OD 655 nm.
In the case of B1, the binding result was “binds”.

For the molecule B2, the binding result is “binds”.

Turning to B3, the binding result was “binds”.

The next assay addresses T18, Y610A peptide (HER2 603-622 with Y610A) (human).
T18 peptide: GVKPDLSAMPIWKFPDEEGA
The assay can be described thus: peptide ELISA, OD 655 nm.
Consider B1, for which the binding result is “binds”.

Consider B2, for which the binding result was “binds”.

Consider B3, for which the binding result is given as “binds”.

Another assay addresses T19, G603A peptide (HER2 603-622 with G603A) (human).
T19 peptide: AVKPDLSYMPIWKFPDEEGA
The assay is described as follows: peptide ELISA, OD 655 nm.
Turning to B1, the binding result was “binds”.

Take B2: the binding result was “binds”.

Turning to B3, the binding result is listed as “binds”.

The target of the next assay is T20, V604A peptide (HER2 603-622 with V604A) (human).
T20 peptide: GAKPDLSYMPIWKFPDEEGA
The assay is described as follows: peptide ELISA, OD 655 nm.
In the case of B1, the binding result was “binds”.

For B2, the binding result is “binds”.

On to B3, for which the binding result was “binds”.

The target of the next assay is T21, G621A peptide (HER2 603-622 with G621A) (human).
T21 peptide: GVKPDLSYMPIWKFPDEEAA
The assay is described as follows: peptide ELISA, OD 655 nm.
For the molecule B1, the binding result is “binds”.

For B2, the binding result is listed as “binds”.

For the molecule B3, the binding result is given as “binds”.
